This note sets out measurements from patent US20200157212A1 (Pfizer, published 2020).

In this experiment the target is T1, Rat ROBO2 on cells (rat, UniProt Q7TPD3 22-1469 (mouse entry)).
T1 construct: overexpressed on HEK293 cells in flow cytometry; endogenous on rat SVZ neuronal explants in the SVZa assay
T1 chain: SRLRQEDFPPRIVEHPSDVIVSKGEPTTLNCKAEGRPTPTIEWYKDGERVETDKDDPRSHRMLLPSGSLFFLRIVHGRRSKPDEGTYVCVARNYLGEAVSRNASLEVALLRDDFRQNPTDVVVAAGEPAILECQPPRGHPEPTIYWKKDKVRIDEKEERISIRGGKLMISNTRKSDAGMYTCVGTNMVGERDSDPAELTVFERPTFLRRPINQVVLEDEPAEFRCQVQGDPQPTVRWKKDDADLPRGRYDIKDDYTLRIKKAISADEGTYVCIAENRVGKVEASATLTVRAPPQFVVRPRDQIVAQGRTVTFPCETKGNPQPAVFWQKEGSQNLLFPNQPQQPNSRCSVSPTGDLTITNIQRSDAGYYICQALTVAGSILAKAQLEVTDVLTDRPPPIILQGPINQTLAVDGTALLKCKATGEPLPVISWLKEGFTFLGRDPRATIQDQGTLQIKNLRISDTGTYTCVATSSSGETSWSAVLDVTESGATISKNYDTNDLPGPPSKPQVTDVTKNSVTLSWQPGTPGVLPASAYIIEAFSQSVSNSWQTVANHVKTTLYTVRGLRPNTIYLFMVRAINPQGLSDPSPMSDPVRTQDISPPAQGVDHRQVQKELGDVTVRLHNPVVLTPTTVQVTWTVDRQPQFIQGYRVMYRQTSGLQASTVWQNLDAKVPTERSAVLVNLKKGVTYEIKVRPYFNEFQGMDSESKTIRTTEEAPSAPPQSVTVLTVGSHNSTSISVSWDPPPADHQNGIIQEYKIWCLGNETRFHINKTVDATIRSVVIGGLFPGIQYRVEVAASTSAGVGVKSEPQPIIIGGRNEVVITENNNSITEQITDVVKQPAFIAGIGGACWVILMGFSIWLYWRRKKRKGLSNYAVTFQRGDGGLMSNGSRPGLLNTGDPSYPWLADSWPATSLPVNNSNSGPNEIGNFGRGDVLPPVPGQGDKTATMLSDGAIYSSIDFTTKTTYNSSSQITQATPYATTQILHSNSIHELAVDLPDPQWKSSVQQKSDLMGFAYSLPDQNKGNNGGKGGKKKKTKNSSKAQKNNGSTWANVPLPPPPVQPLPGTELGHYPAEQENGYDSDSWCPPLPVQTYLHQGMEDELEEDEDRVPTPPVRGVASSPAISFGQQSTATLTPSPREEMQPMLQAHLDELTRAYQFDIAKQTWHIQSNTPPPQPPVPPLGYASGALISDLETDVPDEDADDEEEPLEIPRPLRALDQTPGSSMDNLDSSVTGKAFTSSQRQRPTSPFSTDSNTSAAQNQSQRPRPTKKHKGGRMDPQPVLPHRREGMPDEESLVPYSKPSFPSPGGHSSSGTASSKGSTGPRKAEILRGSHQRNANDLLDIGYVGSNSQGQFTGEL
Kind of experiment: flow cytometry, HEK293 cells. The method, then: Using flow cytometry, improvement in the binding EC₅₀ to human ROBO2 relative to the parental 93H2 was evaluated. Starting at 6.7 nM, 11-point, 3-fold dilution series were made for each antibody and used to stain HEK293 overexpressing human ROBO2 as described above for the ROBO2 fold selectivity (Example 2). […] In addition to measuring improved binding to human ROBO2, it was important to ensure that high affinity binding to both cynomolgus monkey ROBO2 and rat ROBO2 was maintained. Using HEK293 cells overexpressing either cynomolgus monkey ROBO2 or rat ROBO2, the relative dose-dependent binding of 93H2, Abcs25 and Abcs35 was evaluated as described above. High affinity binding to both cynomolgus monkey and rat ROBO2 was maintained in Abcs25 and Abcs35 (Table 4). […] Briefly, Abcs35 was immobilized to 300 resonance units (RU) on a CM5 chip. Association of ROBO2 Ig1-Ig2-His (ROBO2) was measured over 5 minutes and dissociation was followed for a period of 10 minutes.
The binding profile of Abcs35-J compared to Abcs35 was determined for human ROBO2, orthologs from cynomolgus monkey and rat, human ROBO1 and specificity for the RSK epitope from ROBO2 but not KSR from ROBO1. Binding was assessed by flow cytometry as described in Examples 2 (homolog specificity), Example 3 (ortholog reactivity) and Example 5 (RSK vs KSR epitope specificity). […] Binding of the antibodies was detected using a secondary fluorochrome conjugated anti-human IgG F(ab′)₂ antibody and samples analyzed on a Fortessa cytometer (BD Biosciences).
(In general: Flow cytometry measures light scatter and fluorescence of single cells or particles in a stream.)

B1: Abcs35 (antibody, human IgG1, kappa)
heavy: EVQLVQSGAEVKKPGASVKVSCKASGYTFTGYYMHWVRQAPGQGLEWMGWINPKNGDTEFPQKFQGRVTMTRDTSITTAYMDLSRLRSDDTAVYYCARESGDDAFDIWGQGTMVTVSSASTKGPSVFPLAPSSKSTSGGTAALGCLVKDYFPEPVTVSWNSGALTSGVHTFPAVLQSSGLYSLSSVVTVPSSSLGTQTYICNVNHKPSNTKVDKKVEPKSCDKTHTCPPCPAPEAAGAPSVFLFPPKPKDTLMISRTPEVTCVVVDVSHEDPEVKFNWYVDGVEVHNAKTKPREEQYNSTYRVVSVLTVLHQDWLNGKEYKCKVSNKALPAPIEKTISKAKGQPREPQVYTLPPSREEMTKNQVSLTCLVKGFYPSDIAVEWESNGQPENNYKTTPPVLDSDGSFFLYSKLTVDKSRWQQGNVFSCSVMHEALHNHYTQKSLSLSPGK
light: DIVMTQSPSSLSASVGDRVTITCRASQSISSYLNWYQQKPGKAPKLLIYAASSLQSGVPSRFSGSGSGTDFTLTISSLQPEDFATYYCQQSVGLFFGGGTKVEIKRTVAAPSVFIFPPSDEQLKSGTASVVCLLNNFYPREAKVQWKVDNALQSGNSQESVTEQDSKDSTYSLSSTLTLSKADYEKHKVYACEVTHQGLSSPVTKSFNRGEC
notes: fully human IgG1; VH of Ab96 with VL of Ab123
As usually defined, the EC50 is the concentration needed to bring the measured effect to its halfway point. Low values mean an effect from little substance, high ones a need for much substance. Regarding B1, the concentration for a half-maximal effect (EC50) is 0.026 nM.

B2: Abcs35-J (antibody, human IgG1, kappa)
heavy: EVQLVQSGAEVKKPGASVKVSCKASGYTFTGYYMHWVRQAPGQGLEWMGWINPKNGDTEFPQKFQGRVTMTRDTSITTAYMELSRLRSDDTAVYYCARESGDDAFDIWGQGTMVTVSSASTKGPSVFPLAPSSKSTSGGTAALGCLVKDYFPEPVTVSWNSGALTSGVHTFPAVLQSSGLYSLSSVVTVPSSSLGTQTYICNVNHKPSNTKVDKKVEPKSCDKTHTCPPCPAPEAAGAPSVFLFPPKPKDTLMISRTPEVTCVVVDVSHEDPEVKFNWYVDGVEVHNAKTKPREEQYNSTYRVVSVLTVLHQDWLNGKEYKCKVSNKALPAPIEKTISKAKGQPREPQVYTLPPSREEMTKNQVSLTCLVKGFYPSDIAVEWESNGQPENNYKTTPPVLDSDGSFFLYSKLTVDKSRWQQGNVFSCSVMHEALHNHYTQKSLSLSPGK
light: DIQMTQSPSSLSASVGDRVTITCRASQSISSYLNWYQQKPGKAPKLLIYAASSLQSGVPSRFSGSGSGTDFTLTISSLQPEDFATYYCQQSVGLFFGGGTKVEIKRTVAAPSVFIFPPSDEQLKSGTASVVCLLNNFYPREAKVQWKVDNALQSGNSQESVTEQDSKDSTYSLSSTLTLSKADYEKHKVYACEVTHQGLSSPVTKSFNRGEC
notes: germlined variant of Abcs35; also called ABCS-J
The molecule B2 gave an EC50 of 0.026 nM.
